The target of this experiment is T1, thrombin (Homo sapiens, UniProt P00734).
T1 construct: followed by 50 μL of thrombin (278 nM, 10 μg/mL)
In words: Cleavage of peptides by 1.4 nM thrombin (HPLC). To be noted: 50 μM peptide, 37° C. The class given is biochemical. The method, then:
FIG. 19 depicts the cleavage of Compounds 1, 4, 5 and 6 by 1.4 nM thrombin. Compounds 1, 4 and 5 incorporate PABC and different thrombin-cleavable substrates. 50 μL of peptide (1 mM) in water was added to 900 μL PBS. The mixture was incubated at 37° C. for 30 min, followed by 50 μL of thrombin (27.8 nM, 1 μg/mL), giving the following approximate initial concentrations: thrombin=1.4 nM, peptide=50 μM. The mixture was incubated at 37° C. Aliquots (95 μL) at various time points were quenched with 5 μL of hirudin (2 μM) and injected into the HPLC (C-18 column, CH3CN/H2O, 0 to 70% over 12 minutes, 60° C. 0.5 mL/min, λ=280 nm). The decreases of peptide peak areas were used to calculate yield.

Experimental findings from patent US11168316B2, “Chimeric clotting factors” (Bioverativ Therapeutics Inc., priority 2012, dated 2021) are described below.

Ends that are not written are not given here.

“Ala-Leu-Val-Pro-Arg-Ile-Val-Gly-Gly-Gln-Glu-NH2 (ALVPRIVGGQE-NH2; also: PABC self-immolative linker, place not given here) [Compound 6]”: the “thrombin-mediated release of peptide IVGGQE” value was “not observed”.
